From patent US20240124586A1 (WUXI BIOLOGICS IRELAND, published 2024)

T1: human CD19 on CD19+ B cell lines (Ramos, Raji) (human, UniProt P15391 20-556)
T1 sequence (looked up): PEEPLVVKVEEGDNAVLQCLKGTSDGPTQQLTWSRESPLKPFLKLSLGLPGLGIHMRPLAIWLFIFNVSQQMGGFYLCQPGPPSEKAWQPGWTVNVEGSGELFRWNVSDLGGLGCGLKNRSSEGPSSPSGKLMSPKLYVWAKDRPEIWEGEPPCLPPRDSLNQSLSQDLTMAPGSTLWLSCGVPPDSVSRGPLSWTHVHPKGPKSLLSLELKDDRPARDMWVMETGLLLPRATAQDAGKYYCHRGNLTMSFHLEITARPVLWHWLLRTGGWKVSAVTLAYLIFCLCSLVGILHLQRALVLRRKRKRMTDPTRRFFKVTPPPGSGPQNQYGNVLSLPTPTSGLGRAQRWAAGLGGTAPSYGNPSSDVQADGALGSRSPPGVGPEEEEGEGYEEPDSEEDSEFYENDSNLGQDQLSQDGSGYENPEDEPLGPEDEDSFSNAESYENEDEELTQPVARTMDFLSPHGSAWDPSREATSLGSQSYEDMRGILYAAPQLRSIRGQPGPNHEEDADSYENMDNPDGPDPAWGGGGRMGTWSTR


What was measured:
[1] = target: T1, human CD19 on CD19+ B cell lines …; experiment: cell-based or functional assay
[2] = target: T2, human CD3 on CD3+ Jurkat cells (human, UniProt P07766 23-207; P09693 23-182; P04234 22-171); experiment: FACS on CD3+ Jurkat cells, Expi293 supernatant
T2 construct: whole, on cells; also called CD3 positive Jurkat cells
T2 sequence (P07766 23-207, chain 1 of 3): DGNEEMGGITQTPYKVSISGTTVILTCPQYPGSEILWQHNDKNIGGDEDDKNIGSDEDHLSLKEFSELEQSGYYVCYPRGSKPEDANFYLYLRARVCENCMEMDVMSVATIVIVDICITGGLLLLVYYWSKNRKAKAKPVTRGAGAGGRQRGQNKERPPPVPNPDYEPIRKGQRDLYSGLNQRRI
T2 sequence (P09693 23-182, chain 2 of 3): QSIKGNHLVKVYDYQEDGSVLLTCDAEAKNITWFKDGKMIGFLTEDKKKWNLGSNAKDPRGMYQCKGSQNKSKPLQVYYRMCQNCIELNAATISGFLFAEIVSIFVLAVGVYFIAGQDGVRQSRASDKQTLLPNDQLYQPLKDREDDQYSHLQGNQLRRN
T2 sequence (P04234 22-171, chain 3 of 3): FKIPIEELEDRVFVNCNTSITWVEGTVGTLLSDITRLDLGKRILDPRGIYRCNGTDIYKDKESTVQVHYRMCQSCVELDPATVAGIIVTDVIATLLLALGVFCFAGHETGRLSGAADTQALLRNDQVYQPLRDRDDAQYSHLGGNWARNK

[3] = target: T2, human CD3 on CD3+ Jurkat cells; experiment: FACS on CD3+ Jurkat cells, supernatant, 5.0 nM
Experimental: (§1) To confirm whether the expressed proteins had correct folding and retained the original function, we tested their binding on CD3 positive Jurkat cells. FACS bindings of all the samples were carried out at three different concentrations: […].

[4] = target: T2, human CD3 on CD3+ Jurkat cells; experiment: FACS on CD3+ Jurkat cells, supernatant, 0.4 nM
Experimental: as §1

[5] = target: T2, human CD3 on CD3+ Jurkat cells; experiment: FACS on CD3+ Jurkat cells, supernatant, 0.032 nM
Experimental: as §1

[6] = target: T3, cynomolgus CTLA-4 on engineered 293F cells (W316-293F.cynoPro1.F1.Pool) (cynomolgus); experiment: FACS binding to cynomolgus CTLA-4 engineered cells
T3 construct: whole, on cells; also called cynomolgus CTLA-4 engineered cells
Experimental: 4-fold titrated Abs with 1% BSA DPBS from 40 μg/ml to 0.00004 μg/ml were added to the cells. Plates were incubated at 4° C. for 1 hour. After wash, […] 1:150 diluted PE-labeled goat anti-human antibody (Jackson 109-115-098) was added to each well and the plates were incubated at 4° C. for 1 hour. The binding of the antibodies onto the cells was tested by flow cytometry and the mean fluorescence intensity (MFI) was analyzed by FlowJo.

Row | Binder | MFI at 5.0 nM [3] | MFI at 0.4 nM [4] | MFI at 0.032 nM [5] | other results
1 | E17-Design_2-QQQQ (IgG1), bispecific anti-CD3 x CD19 (bispecific antibody) heavy 1: not shown light 1: DIVMTQSPDSLAVSLGERATINCKSSQSLLNSRTRKNYLAWYQQKPGQPPKLLIYWASTRQSGVPDRFSGSGSGTDFTLTISSLQAEDVAVYYCTQSHTLRTFGGGTKVEIKPDIQNPDPAVYQLRDSKSSDKSVCLFTDFDSQTQVSQSKDSDVYITDKCVLDMRSMDFKSNSAVAWSQKSDFACANAFQNSIIPEDTFFPSPESS heavy 2: QMQLVQSGPEVKKPGTSVKVSCKASGYAFTSYNMYWVRQARGQRLEWIGYIDPYNGDTTYNQKFKGRVTITRDMSTSTAYMELSSLRSEDTAVYYCLTTAYAMDYWGQGTLVTVSSASTKGPSVFPLAPSSKSTSGGTAALGCLVKDYFPEPVTVSWNSGALTSGVHTFPAVLQSSGLYSLSSVVTVPSSSLGTQTYICNVNHKPSNTKVDKRVEPKSCDKTHTCPPCPAPEAAGGPSVFLFPPKPKDTLMISRTPEVTCVVVDVSHEDPEVKFNWYVDGVEVHNAKTKPREEQYNSTYRVVSVLTVLHQDWLNGKEYKCKVSNKALPAPIEKTISKAKGQPREPQVCTLPPSREEMTKNQVSLSCAVKGFYPSDIAVEWESNGQPENNYKTTPPVLDSDGSFFLVSKLTVDKSRWQQGNVFSCSVMHEALHNHYTQKSLSLSPGK light 2: DIQLTQSPSFLSASVGDRVTITCSASSTVNYMHWYQQKPGKAPKLLIYSTSNLASGVPSRFSGSGSGTEFTLTISSLQPEDFATYYCHQWSSYPYTFGQGTKLEIKRTVAAPSVFIFPPSDEQLKSGTASVVCLLNNFYPREAKVQWKVDNALQSGNSQESVTEQDSKDSTYSLSSTLTLSKADYEKHKVYACEVTHQGLSSPVTKSFNRGEC | – | – | – | EC50 of T-cell directed killing of malignant B cells (PI-positive Raji cells) [1]: 0.624 nM
2 | T3-Design_2-QQQQ (IgG1) (antibody, De-glycosylation mutant of Design_2; tested as supernatant) heavy: not shown light: DIVMTQSPDSLAVSLGERATINCKSSQSLLNSRTRKNYLAWYQQKPGQPPKLLIYWASTRQSGVPDRFSGSGSGTDFTLTISSLQAEDVAVYYCTQSHTLRTFGGGTKVEIKPDIQNPDPAVYQLRDSKSSDKSVCLFTDFDSQTQVSQSKDSDVYITDKCVLDMRSMDFKSNSAVAWSQKSDFACANAFQNSIIPEDTFFPSPESS | – | – | – | EC50 (read off the curve) [2]: ~0.6 nM
3 | T3-Design_2 (IgG1), normal orientation (antibody, Monospecific IgG-like TCR chimera; tested as supernatant) heavy: not shown light: DIVMTQSPDSLAVSLGERATINCKSSQSLLNSRTRKNYLAWYQQKPGQPPKLLIYWASTRQSGVPDRFSGSGSGTDFTLTISSLQAEDVAVYYCTQSHTLRTFGGGTKVEIKPDIQNPDPAVYQLRDSKSSDKSVCLFTDFDSQTNVSQSKDSDVYITDKCVLDMRSMDFKSNSAVAWSNKSDFACANAFNNSIIPEDTFFPSPESS | 5830 MFI | 2620 MFI | 380 MFI | –
4 | T3-Design_2-AAAA (IgG1) (antibody, De-glycosylation mutant of Design_2; tested as supernatant) heavy: not shown light: DIVMTQSPDSLAVSLGERATINCKSSQSLLNSRTRKNYLAWYQQKPGQPPKLLIYWASTRQSGVPDRFSGSGSGTDFTLTISSLQAEDVAVYYCTQSHTLRTFGGGTKVEIKPDIQNPDPAVYQLRDSKSSDKSVCLFTDFDSQTAVSQSKDSDVYITDKCVLDMRSMDFKSNSAVAWSAKSDFACANAFANSIIPEDTFFPSPESS | – | – | – | EC50 (read off the curve) [2]: ~0.5 nM
5 | T3-Design_2-ASKE (IgG1) (antibody, De-glycosylation mutant of Design_2; tested as supernatant) heavy: not shown light: DIVMTQSPDSLAVSLGERATINCKSSQSLLNSRTRKNYLAWYQQKPGQPPKLLIYWASTRQSGVPDRFSGSGSGTDFTLTISSLQAEDVAVYYCTQSHTLRTFGGGTKVEIKPDIQNPDPAVYQLRDSKSSDKSVCLFTDFDSQTAVSQSKDSDVYITDKCVLDMRSMDFKSNSAVAWSSKSDFACANAFKNSIIPEDTFFPSPESS | – | – | – | EC50 (read off the curve) [2]: ~0.5 nM
6 | T3-Design_2-QQQQQ (IgG1) (antibody, De-glycosylation mutant of Design_2; tested as supernatant) heavy: not shown light: DIVMTQSPDSLAVSLGERATINCKSSQSLLNSRTRKNYLAWYQQKPGQPPKLLIYWASTRQSGVPDRFSGSGSGTDFTLTISSLQAEDVAVYYCTQSHTLRTFGGGTKVEIKPDIQNPDPAVYQLRDSKSSDKSVCLFTDFDSQTQVSQSKDSDVYITDKCVLDMRSMDFKSQSAVAWSQKSDFACANAFQNSIIPEDTFFPSPESS | – | – | – | EC50 (read off the curve) [2]: ~0.4 nM
7 | WBP316-BMK1.IgG4 (antibody, V domains shown, also called WBP316-BMK1 (Ipilimumab)) VH: QVQLVESGGGVVQPGRSLRLSCAASGFTFSSYTMHWVRQAPGKGLEWVTFISYDGNNKYYADSVKGRFTISRDNSKNTLYLQMNSLRAEDTAIYYCARTGWLGPFDYWGQGTLVTVSS VL: not shown | – | – | – | EC50 [6]: 0.674 nM; Top(MFI) [6]: 8050 MFI
8 | T3-Design_3 (IgG1), crossed orientation (antibody, Monospecific IgG-like TCR chimera; tested as supernatant) heavy: not shown light: DIVMTQSPDSLAVSLGERATINCKSSQSLLNSRTRKNYLAWYQQKPGQPPKLLIYWASTRQSGVPDRFSGSGSGTDFTLTISSLQAEDVAVYYCTQSHTLRTFGGGTKVEIKLEDLKNVFPPEVAVFEPSEAEISHTQKATLVCLATGFYPDHVELSWWVNGKEVHSGVCTDPQPLKEQPALNDSRYALSSRLRVSATFWQNPRNHFRCQVQFYGLSENDEWTQDRAKPVTQIVSAEAWGRA | 5090 MFI | 982 MFI | 137 MFI | –
9 | T3-Design_4 (IgG1), crossed orientation (antibody, Monospecific IgG-like TCR chimera; tested as supernatant) heavy: not shown light: DIVMTQSPDSLAVSLGERATINCKSSQSLLNSRTRKNYLAWYQQKPGQPPKLLIYWASTRQSGVPDRFSGSGSGTDFTLTISSLQAEDVAVYYCTQSHTLRTFGGGTKVEIKLEDLKNVFPPEVAVFEPSEAEISHTQKATLVCLATGFYPDHVELSWWVNGKEVHSGVCTDPQPLKEQPALNDSRYALSSRLRVSATFWQNPRNHFRCQVQFYGLSENDEWTQDRAKPVTQIVSAEAWGRA | 5440 MFI | 1210 MFI | 168 MFI | –
10 | T3-Design_5 (IgG1), normal orientation (antibody, Monospecific IgG-like TCR chimera; tested as supernatant) heavy: not shown light: DIVMTQSPDSLAVSLGERATINCKSSQSLLNSRTRKNYLAWYQQKPGQPPKLLIYWASTRQSGVPDRFSGSGSGTDFTLTISSLQAEDVAVYYCTQSHTLRTFGGGTKVEIKRTVAAPDPAVYQLRDSKSSDKSVCLFTDFDSQTNVSQSKDSDVYITDKCVLDMRSMDFKSNSAVAWSNKSDFACANAFNNSIIPEDTFFPSPESS | 5390 MFI | 1860 MFI | 249 MFI | –
11 | T3-Design_6 (IgG1), normal orientation (antibody, Monospecific IgG-like TCR chimera; tested as supernatant) heavy: not shown light: DIVMTQSPDSLAVSLGERATINCKSSQSLLNSRTRKNYLAWYQQKPGQPPKLLIYWASTRQSGVPDRFSGSGSGTDFTLTISSLQAEDVAVYYCTQSHTLRTFGGGTKVEIKPDIQNPDPAVYQLRDSKSSDKSVCLFTDFDSQTNVSQSKDSDVYITDKCVLDMRSMDFKSNSAVAWSNKSDFACANAFNNSIIPEDTFFPSPESS | 5790 MFI | 3910 MFI | 613 MFI | –
12 | T3-Design_6a (IgG1), normal orientation (antibody, Monospecific IgG-like TCR chimera; tested as supernatant) heavy: not shown light: DIVMTQSPDSLAVSLGERATINCKSSQSLLNSRTRKNYLAWYQQKPGQPPKLLIYWASTRQSGVPDRFSGSGSGTDFTLTISSLQAEDVAVYYCTQSHTLRTFGGGTKVEIKPDIQNPDPAVYQLRDSKSSDKSVCLFTDFDSQTNVSQSKDSDVYITDKCVLDMRSMDFKSNSAVAWSNKSDFACANAFNNSIIPEDTFFPSPESS | 5790 MFI | 2820 MFI | 405 MFI | –
13 | T3-Design_7 (IgG1), crossed orientation (antibody, Monospecific IgG-like TCR chimera; tested as supernatant) heavy: not shown light: DIVMTQSPDSLAVSLGERATINCKSSQSLLNSRTRKNYLAWYQQKPGQPPKLLIYWASTRQSGVPDRFSGSGSGTDFTLTISSLQAEDVAVYYCTQSHTLRTFGGGTKVEIKLEDLKNVFPPEVAVFEPSEAEISHTQKATLVCLATGFYPDHVELSWWVNGKEVHSGVCTDPQPLKEQPALNDSRYALSSRLRVSATFWQNPRNHFRCQVQFYPSNQIVSAEAWGRA | 6320 MFI | 1930 MFI | 259 MFI | –
14 | T3-Design_8 (IgG1), crossed orientation (antibody, Monospecific IgG-like TCR chimera; tested as supernatant) heavy: not shown light: DIVMTQSPDSLAVSLGERATINCKSSQSLLNSRTRKNYLAWYQQKPGQPPKLLIYWASTRQSGVPDRFSGSGSGTDFTLTISSLQAEDVAVYYCTQSHTLRTFGGGTKVEIKLEDLKNVFPPEVAVFEPSEAEISHTQKATLVCLATGFYPDHVELSWWVNGKEVHSGVCTDPQPLKEQPALNDSRYALSSRLRVSATFWQNPRNHFRCQVQFYPSNQIVSAEAWGRA | 6410 MFI | 1830 MFI | 243 MFI | –
15 | T3-Design_1 (IgG1), normal orientation (antibody, Monospecific IgG-like chimera of T3 variable domains with TCR CBeta/CAlpha; tested as Expi293 supernatant) heavy: not shown light: DIVMTQSPDSLAVSLGERATINCKSSQSLLNSRTRKNYLAWYQQKPGQPPKLLIYWASTRQSGVPDRFSGSGSGTDFTLTISSLQAEDVAVYYCTQSHTLRTFGGGTKVEIKRTVAAPDPAVYQLRDSKSSDKSVCLFTDFDSQTNVSQSKDSDVYITDKCVLDMRSMDFKSNSAVAWSNKSDFACANAFNNSIIPEDTFFPSPESS | 5440 MFI | 2190 MFI | 292 MFI | –
